According to patent US20140370037A1 (published 2014):
Substitutions are numbered along the chain they refer to.

T1: human DLL3 antigen (human, UniProt Q9NYJ7 27-492, limits assumed)
T1 construct: also called immobilized human DLL3; recombinant human DLL3
T1 sequence (looked up): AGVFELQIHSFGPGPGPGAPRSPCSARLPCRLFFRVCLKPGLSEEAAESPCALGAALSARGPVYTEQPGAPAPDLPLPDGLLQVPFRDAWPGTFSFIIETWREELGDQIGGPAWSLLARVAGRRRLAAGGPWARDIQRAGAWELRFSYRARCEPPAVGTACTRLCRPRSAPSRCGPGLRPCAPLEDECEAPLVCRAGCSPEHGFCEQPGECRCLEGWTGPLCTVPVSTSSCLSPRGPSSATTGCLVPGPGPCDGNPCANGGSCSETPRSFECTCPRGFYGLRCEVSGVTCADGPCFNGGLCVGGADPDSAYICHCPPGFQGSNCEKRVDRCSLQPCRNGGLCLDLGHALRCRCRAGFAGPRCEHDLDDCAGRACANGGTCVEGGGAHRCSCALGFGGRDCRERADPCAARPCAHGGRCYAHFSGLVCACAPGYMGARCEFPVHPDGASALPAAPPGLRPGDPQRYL

B1: SC16.42 (antibody, V domains shown)
VH: QIQLVQSGPELKKPGETVKISCKASGYTFTTAGMQWVQKMPGKGFKWIGWINTHSGEPKYADDFKGRFAFSLETSASTAYLQISNLKDEDTATFFCAPLWSDSSFAYWGQGTLVTVSA
VL: DVLMTQSPLSLSVSLGDQASISCRSSQNIVHSDRYTYLEWYLQKPGQSPKLLIYGVSNRFSGVPDRFSGSGSGTDFTLKISRVEAEDMGVYYCFQGTHVPYTFGGGTKLEIK
notes: murine mAb
B2: SC16.36 (antibody, V domains shown)
VH: QVQLQQSGAELAKPGASVKMSCKASGYTFTTYWMHWVKQRPGQGLEWIGYINPSSGYTEYNQKFKDKATLTADKSSSTAYMQLSSLTSEDSSVYYCARKGSNRGFAYWGQGTLVTVS
VL: ETTVTQSPASLSVTTGEKVTIRCITTPDIDDDMNWYQQKPGEPPNLLISEGNSLRPGVPSRFSSSGYGTNFVFTIENTLSEDVADYYCLQSDNMPFTFGSGTKLEIK
notes: murine mAb
B3: SC16.5 (antibody, V domains shown)
VH: QVTLKESGPGILQPSQTLSLTCSFSGFSLSTSGMGVGWIRQPSGEGLEWLADIWWDDNKYYNPSLKSRLTISKDTSSNQVFLKITSVDTADTATYYCARRVNYVYDPYYAMDYWGQGTSVTVSS
VL: QIVLTQSPAIMSASPGEKVTMTCSASSSVSYMHWYQQKSGTSPKRWIYDTSKLASGVPARFSGSGSGTSYSLTISSMEAEDAATYYCQQWTRNPLTFGAGTKLELK
notes: murine mAb
B4: SC16.25 (antibody, V domains shown)
VH: B3 VH with A51T, K83N, V104Y
VL: B3 VL with T50S, T91S, R92S
notes: murine mAb
B5: SC16.47 (antibody, V domains shown)
VH: EVQLQQSGPELVKPGASVKISCKASGYSFSRFYMHWVKQSPENSLEWIGEINPSTGGTSYNQKFKGKATLTVDKSSSTAYMQLKSLTSEESAVYYCTRGYGSNCYFDVWGAGTTVTVST
VL: DVVLTQSPLSLPVNIGDQASISCKSTKSLLNSDGFTYLDWYLQRPGQSPQFLIYLVSNRFSGVPDRFSGSGSGTDFTLKISRVEAEDLGVYYCFQSNYLPLTFGAGTKLELR
notes: murine mAb
B6: SC16.22 (antibody, V domains shown)
VH: QVQLQQPGAELVKPGASVKLSCKASGYTFTTYWMHWVKQRPGQGLEWIGEIDPSDSYTYYNQKFKGKATLTVDKSSSTAYMQLSSLTSEDSAVYYCARGDYGNPYAMDYWGQGSSVTVSS
VL: DIQMTQTTSSLSASLGDRVTISCRASQDIKNYLNWYQQKPDGTVKPLIYYTSRVHSGVPSRFSGSGSGTDYSLTISNLEQEDIATYFCQQGYTLPFTFGSGTKLE
notes: murine mAb
B7: SC16.21 (antibody, V domains shown)
VH: QVQLQQSGPELVKPGASVKISCKASGYAFSSSWMNWVKQRPGKGLEWIGRIYPGDGDTNYNGKFKGKATLTADKSSSTAYMQLSSLTSEDSAVYFCAMGIYNYDGSRYYSMDYWGQGTSVTVSS
VL: DIVMTQSPSSLAMSVGQKVTMSCKSSQSLLNSSNQKNYLAWYQQEPGQSPKLLVSFASTRESGVPDRFTGSGSGTDFTLTISGVQAEDLAVYYCQQHYSIPLTFGAGTKLELK
notes: murine mAb
B8: SC16.23 (antibody, V domains shown)
VH: QVTLKESGPGILQPSQTLSLTCSFSGFSLSTSNTGIGWIRQPSGTGLEWLAHIWWNDDKYYNPSLKSRLTISKETSNNQVFLKITNVDTADTASYFCVQIGRDYSNYAWYFDVWGAGTTVTVSS
VL: QIVLTQSPAIMSASPGEKVTLTCSASSSVSSRYLYWYQQKPGSSPKLWIYSTSNLASGVPARFSGSGSGTSYSLIISSMEAEDAASYFCHQWSNYPLTFGAGTKLELK
notes: murine mAb
B9: SC16.4 (antibody, V domains shown)
VH: QIQLVQSGPELKKPGETVKISCKASGYTFTDYSMHWVKQAPGKGLKWMGWINTETGEPGYADDFKGRFAFSLETSASTAYLQINNLKNEDTATYFCARYDGYAMDYWGQGTSVTVSS
VL: DIQMTQTTSSLSASLGDRVTISCRASQDISNYLNWYQQKPDGTVKLLIYYTSRLHSGVPSRFSGSGSGTDYSLTISNLELEDIATYFCQQGDMLPWTFGGGTKLEIK
notes: murine mAb; also called mAb SC16.4
B10: SC16.35 (antibody, V domains shown)
VH: DVQLQESGPGLVKPSQSLSLTCTVTGYSITSDYAWNWIRQFPGNKLEWMGYISYSGSTSYNPSLKSRISITRDTSKNQFFLQLNSVTTEDTATYYCARFYYGSSYAMDYWGQGTSVTVSS
VL: B9 VL with L80Q, D92N, M93T, W96Y
notes: murine mAb
B11: SC16.19 (antibody, V domains shown)
VH: EVQLQQSGAELVRPGASVKLSCTASGFNIKDSLLHWVKQRPEKGLEWIGWIDPEDGETKYAPNFQDKATITTDSSSNTAYLQLISLTSVDTAIYYCAYGNYVRHFDYWGQGTTLTVSS
VL: DIQMTQSPSSLSASLGGKVTFTCKASQDIHKYVAWYQHKPGKGPRLLIHYTSTLQPGISSRFSGSGSGRDYSFSISNLEPEDIATYYCLQYNNLYTFGGGTKLEIKR
notes: murine mAb
B12: SC16.26 (antibody, V domains shown)
VH: QIQLVQSGPELKKPGETVKISCKASGYSFTDYSMHWVKQAPGKGLKWMGWINTETVEPTYADDFMGRFAFSLETSASTAFLQINNLENEDTATYFCARFGSYAMDYWGQGTS
VL: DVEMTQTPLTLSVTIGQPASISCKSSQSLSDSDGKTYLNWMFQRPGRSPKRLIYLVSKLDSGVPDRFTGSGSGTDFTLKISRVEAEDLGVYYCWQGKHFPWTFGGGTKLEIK
notes: murine mAb
B13: SC16.18 (antibody, V domains shown)
VH: EVKLEESGGGLVQPGESMKLSCAASGFTFSDAWMDWVRQSPEKGLEWVAEIRNKANNHATYYAESVKGKFTISRDDSKSRVYLQMNNLRAADTGIYYCTAYSNFAYWGQGTLVTVST
VL: DIQMTQTTSSLSASLGDRVTISCRASQNIINYLNWYQQKPDGTVKLLIYYTSRLHSGVPSRFSGSGSGTDYSLTISNLEPEDIATYYCQQYSERPYTFGGGTKLEIKR
notes: murine mAb
B14: SC16.41 (antibody, V domains shown)
VH: B13 VH with P14F, E16G, A63P, K69R, A91E, A100G, N103S, T117A
VL: B13 VL with N28D, I29V, G68R
notes: murine mAb
B15: SC16.20 (antibody, V domains shown)
VH: QVQLQQSGTELVRPGTSVRVSCKASGYAFGNHLIEWVKQRPGQGLEWIGVINPGTGGTHYNEKFKDKARLTADKSSNTAYMHLNSLTSDDSAVYFCARSPYDYHEGAMDYWGQGTSVTVSS
VL: EIQMTQSPSSMSASLGDRITITCQATQDIVKNLNWYQQKPGKPPSFLIYYATELAEGVPSRFSGSGSGSDYSLTIRNLESEDFADHYCLQFYEFPFTFGAGTKLELK
notes: murine mAb
B16: SC16.45 (antibody, V domains shown)
VH: QVQLQQSGADLVRPGTSVKVSCKASGYSFTNYLIEWVKQRPGQGLEWIGVINPGSGGTHYNEKFKDKAVLTADKSSTTAHMQLSSLTSDDSAVYFCARSPYDYNDGAMDYWGQGTSVTVSS
VL: B15 VL with S60A, R76S, H86Y, Y87H
notes: murine mAb
B17: SC16.3 (antibody, V domains shown)
VH: QVTLKESGPGILQPSQTLSLTCSFSGFSLSTSGMGVGWIRQPSGKGLEWLAHIWWDDVKRYNPALKSRLTISKDTSSSQVFLKIASVDTADTATYYCARIADYGGDYYAMDYWGQGTSVTVSS
VL: QIVLTQSPAIMSVSLGERVTMTCTASSSVSSSYLHWYQQKPGSSPKLWIYSTSNLASGVPARFSGSGSGTSYFFTISSMEAEDAATYYCHQYHRSPFTFGAGTKLKIR
notes: murine mAb; also called mAb SC16.3
B18: SC16.30 (antibody, V domains shown)
VH: QVTLKESGPGILQPSQTLSLTCSFSGFSLSTSGMGVGWIRQPSGKGLEWLAHIWWDDVKRYKPALKSRLTVSKDTSSNQVFLKIATVDAADTGTYYCARIVDGHPPFAYWGQGTLVTVSA
VL: B17 VL with A9T, V13A, S30T, F73S, F74L, Y92F, A101S, K106E, R108K
notes: murine mAb
B19: SC16.38 (antibody, V domains shown)
VH: EVQLQQSGAELVKPGASVKLSCTVSGFNIKDTYIHWVKQRPEQGLEWIGRIDPANGNTKYDPKFQGKATITADTSSNTAYLQLSSLTSEDTAVYYCARPTGYFEYWGQGTTLTVSS
VL: QIVLTQSPAIMSASPGEKVTMTCSASSSINYMHWYQQKPGTSPKRWIYDTSKLASGVPARFSGSGSGTSYSLTISSMEAEDAATYYCHQRSTWTFGGGTKLEIK
notes: murine mAb
B20: SC16.29 (antibody, V domains shown)
VH: QVQLQQSGAELARPGASVKLSCKASGYTFTDQYINWVKQRTGQGLEWIGEIYPGRGNTYYNEKFKGKATLTADKSSSTAYMQLSSLTSEDSAVYFCAREDGGYDDAWFAYWGQGTLVTVSA
VL: QIVLTQSPAIMSASPGEKVTITCSASSSVSYMHWFQQKPGTSPKLWIYTTSNLASGVPARFSGSGSGTSYSLTVSRMEAEDAATYYCQQRSLYPYTFGGGTKVEIK
notes: murine mAb
B21: SC16.34 (antibody, V domains shown)
VH: QIQLVQSGPELKRPGETVKISCKASGYTFTNYGMNWVKQAPGKGLKWMGWINTYTGDPTYADDFKGRFAFSLETSASTAYLQINNLKNEDTATYFCARIGGNSPSDYWGQGTSLTVSS
VL: SIVMTQTPKFLLVSAGDRVTITCKASQSVSNDVAWYQQKPGQSPKLLIYYASNRYSGVPDRFTGSGYGTDFTFTISTVQAEDLAVYFCQQDYSSPWTFGGGTKLEIK
notes: murine mAb

target: T1, human DLL3 antigen; experiment: ELISA or flow cytometry screen

Binding result, binds:
B1
B2
B3
B4
B5
B6
B7
B8
B9
B10
B11
B12
B13
B14
B15
B16
B17
B18
B19
B20
B21
